The values below come from patent EP4700040A1, “PEPTIDE AND LUMINESCENT COMPLEX CONTAINING SAME” (Shenzhen Loggene Life Science & Technology Co., Ltd., priority 2023, dated 2024).

For the test, the target named is Large subunit-rSCFV5 fusion protein. The test can be described thus: cell-based or functional assay.
Chain of Large subunit-rSCFV5 fusion protein (chain, as listed by the source): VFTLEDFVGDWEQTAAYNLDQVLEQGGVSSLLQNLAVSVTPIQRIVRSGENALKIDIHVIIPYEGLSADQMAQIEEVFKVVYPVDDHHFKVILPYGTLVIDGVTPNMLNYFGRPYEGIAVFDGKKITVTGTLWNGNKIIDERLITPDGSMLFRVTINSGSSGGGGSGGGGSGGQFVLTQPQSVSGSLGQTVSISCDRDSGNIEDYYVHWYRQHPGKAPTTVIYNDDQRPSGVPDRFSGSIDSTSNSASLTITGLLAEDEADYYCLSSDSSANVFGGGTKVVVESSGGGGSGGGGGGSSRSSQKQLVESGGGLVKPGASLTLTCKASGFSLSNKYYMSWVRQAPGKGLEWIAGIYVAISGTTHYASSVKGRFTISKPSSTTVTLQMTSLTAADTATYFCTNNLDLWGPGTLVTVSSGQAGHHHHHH
For VEGYRIFEKKW (peptide, part only; not given: rSCFV18 scFv part, part only) [rSCFV18-small subunit mutant fusion protein RC-286], the RLU, PCT+ was determined as 5000 RLU; the RLU, PCT- is 438 RLU; the Signal-to-noise ratio is 11.4; the Signal-to-noise ratio at 1000 pg/ml is 5.5. This molecule displayed a normalised luminescence at PCT 0.0 pg/ml of 5000, a normalised luminescence at PCT 1 pg/ml of 4670, a normalised luminescence at PCT 3 pg/ml of 4640 and a normalised luminescence at PCT 10 pg/ml of 4830. In addition, the normalised luminescence at PCT 30 pg/ml was determined as 5410, the normalised luminescence at PCT 100 pg/ml turned out to be 6700, the normalised luminescence at PCT 1000 pg/ml came out at 27600 and the normalised luminescence at PCT 10000 pg/ml worked out at 236000. The normalised luminescence at PCT 100000 pg/ml is 1.44e+06 and the normalised luminescence at PCT 250000 pg/ml worked out at 2.01e+06.

For VEGYRLFDRKS (peptide, part only; not given: rSCFV18 scFv part, part only) [rSCFV18-small subunit mutant fusion protein RC-218], the RLU, PCT+ was 7240 RLU; the RLU, PCT- came to 921 RLU; the Signal-to-noise ratio turned out to be 7.9; the Signal-to-noise ratio at 1000 pg/ml amounted to 6.3. The normalised luminescence at PCT 0.0 pg/ml came to 5000, the normalised luminescence at PCT 1 pg/ml amounted to 4940, the normalised luminescence at PCT 3 pg/ml worked out at 4980 and the normalised luminescence at PCT 10 pg/ml was 5160. Also, the normalised luminescence at PCT 30 pg/ml turned out to be 5700, the normalised luminescence at PCT 100 pg/ml was 7490, the normalised luminescence at PCT 1000 pg/ml stood at 31600 and the normalised luminescence at PCT 10000 pg/ml worked out at 266000. For the same molecule, the normalised luminescence at PCT 100000 pg/ml was found to be 1.76e+06 and the normalised luminescence at PCT 250000 pg/ml came out at 2.44e+06.

For the molecule VEGYRLFERKS (peptide, part only; not given: rSCFV18 scFv part, part only) [rSCFV18-small subunit mutant fusion protein RC-145], the RLU, PCT+ was found to be 8200 RLU; the RLU, PCT- was determined as 808 RLU; the Signal-to-noise ratio worked out at 10.1.

In the case of VEGYRLFDRKW (peptide, part only; not given: rSCFV18 scFv part, part only) [rSCFV18-small subunit mutant fusion protein RB186], the RLU, PCT+ turned out to be 27200 RLU; the RLU, PCT- was found to be 590 RLU; the Signal-to-noise ratio worked out at 45.1.

Consider VSGYRIFDKKS (peptide, part only; not given: rSCFV18 scFv part, part only) [rSCFV18-small subunit mutant fusion protein RC-044], for which the RLU, PCT+ was determined as 10400 RLU; the RLU, PCT- was 1300 RLU; the Signal-to-noise ratio was 8.

Take VSGYRLFDRKW (peptide, part only; not given: rSCFV18 scFv part, part only) [rSCFV18-small subunit mutant fusion protein RC-033]: the RLU, PCT+ stood at 8510 RLU; the RLU, PCT- was 820 RLU; the Signal-to-noise ratio amounted to 10.4.

With VEGYRLHEKIS (peptide, part only; not given: rSCFV18 scFv part, part only) [rSCFV18-small subunit mutant fusion protein RA128], the RLU, PCT+ is 17900 RLU; the RLU, PCT- was 387 RLU; the Signal-to-noise ratio worked out at 45.2.

Consider VEGYRLFEKVS (peptide, part only; not given: rSCFV18 scFv part, part only) [rSCFV18-small subunit mutant fusion protein RC-042], for which the RLU, PCT+ was 5770 RLU; the RLU, PCT- worked out at 593 RLU; the Signal-to-noise ratio was 9.7.

Consider VSGWRIFDKKS (peptide, part only; not given: rSCFV18 scFv part, part only) [rSCFV18-small subunit mutant fusion protein RC-124], for which the RLU, PCT+ is 9280 RLU; the RLU, PCT- stood at 1230 RLU; the Signal-to-noise ratio was 7.5.

Consider VEGYRLFDRVW (peptide, part only; not given: rSCFV18 scFv part, part only) [rSCFV18-small subunit mutant fusion protein RB128], for which the RLU, PCT+ stood at 26200 RLU; the RLU, PCT- was determined as 658 RLU; the Signal-to-noise ratio came out at 38.8.

As for VEGYRLFKREL (peptide, part only; not given: rSCFV18 scFv part, part only) [rSCFV18-small subunit mutant fusion protein RB152], the RLU, PCT+ came to 37200 RLU; the RLU, PCT- was 906 RLU; the Signal-to-noise ratio came out at 40.
